Experimental data: PMC10016618 (Nature cell biology, 2021)
Like-named read-outs stand apart in the source and are kept apart here. Values belong to the binder of their own block, whether it stands above or below them.

B1: Kif7-DM(E502A)-GFP (domain or fragment, human, UniProt Q2M1P5 1-543, looked up)
chain: MGLEAQRLPGAEEAPVRVALRVRPLLPKELLHGHQSCLQVEPGLGRVTLGRDRHFGFHVVLAEDAGQEAVYQACVQPLLEAFFEGFNATVFAYGQTGSGKTYTMGEASVASLLEDEQGIVPRAMAEAFKLIDENDLLDCLVHVSYLEVYKEEFRDLLEVGTASRDIQLREDERGNVVLCGVKEVDVEGLDEVLSLLEMGNAARHTGATHLNHLSSRSHTVFTVTLEQRGRAPSRLPRPAPGQLLVSKFHFVDLAGSERVLKTGSTGERLKESIQINSSLLALGNVISALGDPQRRGSHIPYRDSKITRILKDSLGGNAKTVMIACVSPSSSDFDETLNTLNYASRAQNIRNRATVNWRPEAERPPEETASGARGPPRHRSETRIIHRGRRAPGPATASAAAAMRLGAECARYRACTDAAYSLLRELQAEPGLPGAAARKVRDWLCAVEGERSALSSASGPDSGIESASVEDQAAQGAGGRKEDEGAQQLLTLQNQVARLEEANRDFLAALEDAMEQYKLQSDRLREQQEEMVELRLRLELVRP
B5: Gli2-ZF (domain or fragment, human, UniProt P10070 418-604, looked up)
chain: KEDLDRDDCKQEAEVVIYETNCHWEDCTKEYDTQEQLVHHINNEHIHGEKKEFVCRWQACTREQKPFKAQYMLVVHMRRHTGEKPHKCTFEGCSKAYSRLENLKTHLRSHTGEKPYVCEHEGCNKAFSNASDRAKHQNRTHSNEKPYICKIPGCTKRYTDPSSLRKHVKTVHGPDAHVTKKQRNDVH
B6: Gli2-ZF-GFP (domain or fragment, human, UniProt P10070 418-604, looked up)
chain: KEDLDRDDCKQEAEVVIYETNCHWEDCTKEYDTQEQLVHHINNEHIHGEKKEFVCRWQACTREQKPFKAQYMLVVHMRRHTGEKPHKCTFEGCSKAYSRLENLKTHLRSHTGEKPYVCEHEGCNKAFSNASDRAKHQNRTHSNEKPYICKIPGCTKRYTDPSSLRKHVKTVHGPDAHVTKKQRNDVH
B7: GST-Kif7-CC-GFP (domain or fragment, human, UniProt Q2M1P5 460-600, looked up)
chain: PDSGIESASVEDQAAQGAGGRKEDEGAQQLLTLQNQVARLEEENRDFLAALEDAMEQYKLQSDRLREQQEEMVELRLRLELVRPGWGGPRLLNGLPPGSFVPRPHTAPLGGAHAHVLGMVPPACLPGDEVGSEQRGEQVTN

Assays:
SEC = target: the molecule itself; experiment: SEC
Gli2-ZF [1] = target: B5; experiment: BLI
Gli2-ZF [2] = target: B5; experiment: BLI; remark: listed apart in the source
Kif7-DM (1-543aa) = target: T1, Kif7-DM (1-543aa) (human, UniProt Q2M1P5 1-543); experiment: BLI
T1 sequence (looked up): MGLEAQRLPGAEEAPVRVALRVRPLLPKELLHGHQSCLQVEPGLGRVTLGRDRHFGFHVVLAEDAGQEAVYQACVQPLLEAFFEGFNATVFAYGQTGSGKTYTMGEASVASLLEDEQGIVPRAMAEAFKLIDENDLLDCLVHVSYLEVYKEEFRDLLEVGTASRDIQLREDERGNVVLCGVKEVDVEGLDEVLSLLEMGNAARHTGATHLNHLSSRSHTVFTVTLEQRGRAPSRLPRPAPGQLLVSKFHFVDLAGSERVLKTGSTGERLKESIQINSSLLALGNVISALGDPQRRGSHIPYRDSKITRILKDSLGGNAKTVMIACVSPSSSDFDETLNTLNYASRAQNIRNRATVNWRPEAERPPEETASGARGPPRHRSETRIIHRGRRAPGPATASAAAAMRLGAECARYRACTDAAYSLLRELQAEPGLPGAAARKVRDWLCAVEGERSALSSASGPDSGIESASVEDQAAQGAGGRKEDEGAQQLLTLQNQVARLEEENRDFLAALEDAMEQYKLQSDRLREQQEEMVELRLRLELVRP

Kif7-DM-GFP (1-543aa) [3] = target: T2, Kif7-DM-GFP (1-543aa) (human, UniProt Q2M1P5 1-543); experiment: BLI
T2 sequence (looked up): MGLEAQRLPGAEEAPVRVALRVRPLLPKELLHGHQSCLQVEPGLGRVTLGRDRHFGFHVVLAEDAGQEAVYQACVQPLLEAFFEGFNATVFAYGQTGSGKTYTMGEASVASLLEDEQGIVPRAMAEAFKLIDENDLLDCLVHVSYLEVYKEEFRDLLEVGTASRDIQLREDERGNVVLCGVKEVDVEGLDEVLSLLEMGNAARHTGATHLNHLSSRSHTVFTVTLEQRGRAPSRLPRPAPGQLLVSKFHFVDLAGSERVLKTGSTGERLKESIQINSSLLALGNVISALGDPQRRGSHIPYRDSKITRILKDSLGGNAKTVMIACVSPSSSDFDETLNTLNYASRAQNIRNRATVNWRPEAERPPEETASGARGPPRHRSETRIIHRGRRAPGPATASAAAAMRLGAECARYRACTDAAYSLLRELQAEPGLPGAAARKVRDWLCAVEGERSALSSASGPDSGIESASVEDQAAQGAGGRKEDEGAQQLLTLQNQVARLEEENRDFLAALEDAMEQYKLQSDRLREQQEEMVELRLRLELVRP

Kif7-DM(E502A)-GFP = target: B1; experiment: BLI
GST-Kif7-CC-GFP = target: B7; experiment: SEC
Kif7-DM-GFP (1-543aa) [4] = target: T2, Kif7-DM-GFP (1-543aa); experiment: SEC
Gli2-ZF-GFP = target: B6; experiment: BLI

Binder: B1
- stoichiometry N (SEC): 2

- Kd (Gli2-ZF [1]): 69 ± 20 nM
B2: GST-Kif7-SCC (481-543aa) (domain or fragment, human, UniProt Q2M1P5 481-543, looked up)
chain: KEDEGAQQLLTLQNQVARLEEENRDFLAALEDAMEQYKLQSDRLREQQEEMVELRLRLELVRP

- Kd (Gli2-ZF [2]): 217 ± 70 nM
B3: Kif27M-Kif7CC-GFP (other, human, UniProt Q86VH2 1-475, looked up)
chain: MEEIPVKVAVRIRPLLCKEALHNHQVCVRVIPNSQQVIIGRDRVFTFDFVFGKNSTQDEVYNTCIKPLVLSLIEGYNATVFAYGQTGSGKTYTIGGGHIASVVEGQKGIIPRAIQEIFQSISEHPSIDFNVKVSYIEVYKEDLRDLLELETSMKDLHIREDEKGNTVIVGAKECHVESAGEVMSLLEMGNAARHTGTTQMNEHSSRSHAIFTISICQVHKNMEAAEDGSWYSPRHIVSKFHFVDLAGSERVTKTGNTGERFKESIQINSGLLALGNVISALGDPRRKSSHIPYRDAKITRLLKDSLGGSAKTVMITCVSPSSSNFDESLNSLKYANRARNIRNKPTVNFSPESDRIDEMEFEIKLLREALQSQQAGVSQTTQINREGSPDTNRIHSLEEQVAQLQGECLGYQCCVEEAFTFLVDLKDTVRLNEKQQHKLQEWFNMIQEVRKAVLTSFRGIGGTASLEEGPQHVTVPDSGIESASVEDQAAQGAGGRKEDEGAQQLLTLQNQVARLEEENRDFLAALEDAMEQYKLQSDRLREQQEEMVELRLRLELVRPGWGGPRLLNGLPPGSFVPRPHTAPLGGAHAHVLGMVPPACLPGDEVGSEQRGEQVTN
- stoichiometry N (SEC): 2

- Kd (Gli2-ZF [2]): 397 ± 88 nM
B4: Kif7M-Kif27CC-GFP (other, human, UniProt Q2M1P5 1-462, looked up)
chain: MGLEAQRLPGAEEAPVRVALRVRPLLPKELLHGHQSCLQVEPGLGRVTLGRDRHFGFHVVLAEDAGQEAVYQACVQPLLEAFFEGFNATVFAYGQTGSGKTYTMGEASVASLLEDEQGIVPRAMAEAFKLIDENDLLDCLVHVSYLEVYKEEFRDLLEVGTASRDIQLREDERGNVVLCGVKEVDVEGLDEVLSLLEMGNAARHTGATHLNHLSSRSHTVFTVTLEQRGRAPSRLPRPAPGQLLVSKFHFVDLAGSERVLKTGSTGERLKESIQINSSLLALGNVISALGDPQRRGSHIPYRDSKITRILKDSLGGNAKTVMIACVSPSSSDFDETLNTLNYASRAQNIRNRATVNWRPEAERPPEETASGARGPPRHRSETRIIHRGRRAPGPATASAAAAMRLGAECARYRACTDAAYSLLRELQAEPGLPGAAARKVRDWLCAVEGERSALSSASGPDSVLQLKRELKKCQCVLAADEVVFNQKELEVKELKNQVQMMVQENKGHAVSLKEAQKVNRLQNEKIIEQQLLVDQLSEELTKLNLSVTSSAKENCGDG

Binder: B5
- Kd (Kif7-DM (1-543aa)): 99 ± 25 nM
- Kd (Kif7-DM-GFP (1-543aa) [3]): 138 ± 41 nM
- Kd (Kif7-DM(E502A)-GFP): 414 ± 103 nM

Binder: B6
- stoichiometry N (GST-Kif7-CC-GFP): 0.5 Gli2-ZF-GFP per Kif7-CC-GFP chain (one per dimer)
- stoichiometry N (Kif7-DM-GFP (1-543aa) [4]): 1 Gli2-ZF per Kif7-DM chain (two per dimer)

Binder: B7
- Kd (Gli2-ZF [1]): 65 ± 22 nM
- Kd (Gli2-ZF-GFP): 57 ± 9 nM

- binding result (Gli2-ZF [1]): binds
B8: GST-Kif7-CC D505A (domain or fragment, human, UniProt Q2M1P5 460-600, looked up)
chain: PDSGIESASVEDQAAQGAGGRKEDEGAQQLLTLQNQVARLEEENRAFLAALEDAMEQYKLQSDRLREQQEEMVELRLRLELVRPGWGGPRLLNGLPPGSFVPRPHTAPLGGAHAHVLGMVPPACLPGDEVGSEQRGEQVTN

- Kd (Gli2-ZF [1]): 48 ± 5 nM
B9: GST-Kif7-CC (460-600aa) (domain or fragment, human, UniProt Q2M1P5 460-600, looked up)
chain: PDSGIESASVEDQAAQGAGGRKEDEGAQQLLTLQNQVARLEEENRDFLAALEDAMEQYKLQSDRLREQQEEMVELRLRLELVRPGWGGPRLLNGLPPGSFVPRPHTAPLGGAHAHVLGMVPPACLPGDEVGSEQRGEQVTN
